For assay [1], the target named is mutant T238V yeast αβ-tubulin (T238V in Tub2p, β-tubulin) (yeast (S. cerevisiae)) (UniProt P09733). Kind of assay: laser trap plucking force assay; bead tethered by a single anti-His antibody to the His6 tag of β-tubulin at the growing end of a coverslip-anchored microtubule; force ramp 0.25 pN s^-1 until detachment; only detachments followed at once by disassembly counted; removal of tubulin dimers from the microtubule end.

Assay [2] has as its target wild-type yeast αβ-tubulin with a His6 tag fused to the C-terminus of β-tubulin (yeast (S. cerevisiae)) (UniProt P09733). Described as above.

As for “mutant T238V yeast αβ-tubulin (T238V in Tub2p, β-tubulin) (from UniProt P09733 1-447; P02557 1-457) (complex)”, the plucking force in assay [1] was 19 pN. Take “wild-type yeast αβ-tubulin with a His6 tag fused to the C-terminus of β-tubulin (from UniProt P09733 1-447; P02557 1-457) (complex)”: the plucking force in assay [2] stood at 8.3 pN.

These data come from article PMC5515574.
